Experimental data as given in publication PMC3228521 (Molecular bioSystems, 2011).
Like-named read-outs stand apart in the source and are kept apart here.

T1: C-term scPolη (a.a. 515~632) HH568,572AA, GST fusion (S. cerevisiae, UniProt Q04049 515-632, HH568,572AA | HH568,572AA)
T1 sequence (looked up): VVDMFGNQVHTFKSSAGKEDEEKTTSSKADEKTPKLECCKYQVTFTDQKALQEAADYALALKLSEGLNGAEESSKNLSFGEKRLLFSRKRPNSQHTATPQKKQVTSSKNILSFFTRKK

T2: C-term scPolη (a.a. 515~632) CC552,553AA, GST fusion (S. cerevisiae, UniProt Q04049 515-632, CC552,553AA | CC552,553AA)
T2 sequence (looked up): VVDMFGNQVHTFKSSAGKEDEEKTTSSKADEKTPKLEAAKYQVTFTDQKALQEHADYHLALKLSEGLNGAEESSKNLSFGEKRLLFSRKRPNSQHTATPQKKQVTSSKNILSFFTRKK

T3: UBZ-CN (a.a. 515~615) of S. cerevisiae Polη, GST fusion (S. cerevisiae, UniProt Q04049 515-615)
T3 sequence (looked up): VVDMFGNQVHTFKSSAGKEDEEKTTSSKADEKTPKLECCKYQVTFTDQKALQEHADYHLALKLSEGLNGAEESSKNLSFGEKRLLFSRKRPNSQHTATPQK

B1: ubiquitin (S. cerevisiae) (natural protein)
chain: not shown

Columns and labels:
Test in all cases: SPR
[1] = target: B1
[2] = target: B1; remark: listed apart in the source
[3] = target: T1, C-term scPolη (a.a. 515~632) …
[4] = target: T2, C-term scPolη (a.a. 515~632) …
[5] = target: T3, UBZ-CN (a.a. 515~615) of S. cerevisiae …

Kd [2] [µM] | Binder | also measured
– | UBZ-N (a.a. 515~580) of S. cerevisiae Polη, GST fusion (domain or fragment, UniProt Q04049 515-580, looked up) VVDMFGNQVHTFKSSAGKEDEEKTTSSKADEKTPKLECCKYQVTFTDQKALQEHADYHLALKLSEG | Kd [1]: 18.2 ± 2.2 µM
14.6 ± 2.5 | EKTPKLECCKYQVTFTDQKALQEHADYHLALKLSEG (domain or fragment, UniProt Q04049 545-580, looked up) [minimal S. cerevisiae Polη UBZ domain (a.a. 545–580) with N-terminal GST tag, wild type] | –
55.3 ± 5.5 | EKTPKLECCKYQVTFTDQKALQEHADYHLPLKLSEG (domain or fragment, S. cerevisiae, UniProt Q04049 545-580, looked up) [scPolη UBZ domain (a.a. 545–580) A574P, GST fusion] | –
43.1 ± 10.2 | EKTPKLECCKYQVTFTDQKALQEHPDYHLALKLSEG (domain or fragment, S. cerevisiae, UniProt Q04049 545-580, looked up) [scPolη UBZ domain (a.a. 545–580) A569P, GST fusion] | –
22.3 ± 4.1 | EKTPKLEAAKYQVTFTDQKALQEHADYHLALKLSEG (domain or fragment, S. cerevisiae, UniProt Q04049 545-580, looked up) [scPolη UBZ domain (a.a. 545–580) CC552,553AA, GST fusion] | –
23.6 ± 2.4 | EKTPKLECCKYQVTFTDQKALQEHAAYHLALKLSEG (domain or fragment, S. cerevisiae, UniProt Q04049 545-580, looked up) [scPolη UBZ domain (a.a. 545–580) D570A, GST fusion] | –
48.4 ± 7.2 | EKTPKLECCKYQVTFTDQKALPEHADYHLALKLSEG (domain or fragment, S. cerevisiae, UniProt Q04049 545-580, looked up) [scPolη UBZ domain (a.a. 545–580) Q566P, GST fusion] | –
22.2 ± 4.8 | EKTPKLECCKYQVTFTDQKALQEAADYALALKLSEG (domain or fragment, S. cerevisiae, UniProt Q04049 545-580, looked up) [scPolη UBZ domain (a.a. 545–580) HH568,572AA, GST fusion] | –
38.6 ± 8.6 | EKTPKLECCKYQVTFTDQKALQEHADYHLFLKLSEG (domain or fragment, S. cerevisiae, UniProt Q04049 545-580, looked up) [scPolη UBZ domain (a.a. 545–580) A574F, GST fusion] | –
– | UBZ-C (a.a. 545~608) of S. cerevisiae Polη, GST fusion (domain or fragment, UniProt Q04049 545-608, looked up) EKTPKLECCKYQVTFTDQKALQEHADYHLALKLSEGLNGAEESSKNLSFGEKRLLFSRKRPNSQ | Kd [1]: 15.8 ± 3.7 µM
– | B1 | Kd [3]: 0.59 ± 0.14 µM; Kd [4]: 0.3 ± 0.1 µM; Kd [5]: 11.1 ± 1.8 µM
